In patent US20210230266A1 (SINGAPORE HEALTH SERVICES PTE, published 2021):

T1: FLAG-tagged human IL-11 expressed at the surface of transiently transfected cells (human, UniProt P20809 22-199)
T1 construct: also called IL-11 expressing HEK cells; target cells expressing human IL-11 at their surface; not shown: FLAG tag added to the N-terminus
T1 sequence: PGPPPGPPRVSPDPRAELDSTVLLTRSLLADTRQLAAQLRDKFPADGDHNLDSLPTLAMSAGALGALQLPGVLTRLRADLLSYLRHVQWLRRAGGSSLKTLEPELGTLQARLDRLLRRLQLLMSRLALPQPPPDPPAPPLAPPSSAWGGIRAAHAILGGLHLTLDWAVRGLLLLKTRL

T2: Human IL-11 (human, UniProt P20809 22-199)
T2 construct: Recombinant human IL-11 (GenScript Cat. No. Z03108-1) or IL-11 secreted by human cells; the mature form is said to have 178 residues; also called recombinant human IL-11; endogenously produced IL-11
T2 sequence: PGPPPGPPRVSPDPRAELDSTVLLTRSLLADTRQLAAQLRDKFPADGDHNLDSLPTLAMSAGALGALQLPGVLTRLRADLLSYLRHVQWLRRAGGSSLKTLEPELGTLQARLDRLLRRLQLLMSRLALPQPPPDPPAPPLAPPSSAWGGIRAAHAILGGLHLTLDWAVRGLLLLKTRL

T3: Mouse IL-11 (mouse, UniProt P47873 22-199, limits assumed)
T3 construct: also called murine IL-11; recombinant murine IL-11
T3 sequence (looked up): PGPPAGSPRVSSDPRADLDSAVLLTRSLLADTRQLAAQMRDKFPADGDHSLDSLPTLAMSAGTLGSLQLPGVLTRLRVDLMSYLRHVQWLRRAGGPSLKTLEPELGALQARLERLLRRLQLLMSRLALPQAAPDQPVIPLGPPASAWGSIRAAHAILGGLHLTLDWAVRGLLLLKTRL


Legend:
[1] = target: T1, FLAG-tagged human IL-11 expressed at …; experiment: flow cytometry, hybridoma supernatant on cells transfected with pB1-IL11-hum.FL
[2] = target: T1, FLAG-tagged human IL-11 expressed at …; experiment: flow cytometry, hybridoma supernatant on cells transfected with pB1-IL11-hum.FL; relative to the anti-FLAG positive control (100%)
Human IL-11 [3] = target: T2, Human IL-11; experiment: ELISA
Method: (§1) The soluble scFv were produced by recombinant expression in E. coli, and analysed for their ability to bind to human IL-11 and murine IL-11 by ELISA. Briefly, the respective antigen was coated to wells of an ELISA plate, the cell culture supernatant containing the respective scFv was added at a 1:2 dilution, and binding was detected.

Mouse IL-11 = target: T3, Mouse IL-11; experiment: ELISA
Method: as §1

Human IL-11 [4] = target: T2, Human IL-11; experiment: cell-based or functional assay
Human IL-11 [5] = target: T2, Human IL-11; experiment: ELISA on coated recombinant human IL-11 (100 ng/well), scFv-Fc
Method: The light chain shuffled anti-IL-11 antibodies were analysed to determine the EC50 for binding to human IL-11 by ELISA according to standard methods. Briefly, wells of microtiter plates were coated with recombinant human IL-11 (100 ng/well), scFv-Fc comprising the VH and VL domains of the clones were added in a dilution series and antibody binding was detected using a polyclonal antibody detection system.

Human IL-11 [6] = target: T2, Human IL-11; experiment: SPR (BIAcore T200) single cycle kinetics, human IL-11 on CM5 chip, 1:1 model
Excerpt: HEK293 EBNDA cells were transfected with vectors encoding scFv corresponding to YU100-H01, 01A, 01G, 01I, 01L, 01Q, 01S, 01T, 01V, YU100-G08, 02A, 02G, 02I, 02L, 02Q, 02S, 02T or 02V.

Human IL-11 [7] = target: T2, Human IL-11; experiment: SPR, Single Cycle Kinetics, BIAcore T200; human IL-11 immobilised on CM5 chip, antibody in IgG1 format as analyte, 1:1 model

Binder | Kd (Human IL-11 [7]) [nM] | koff (Human IL-11 [7]) [s⁻¹] | kon (Human IL-11 [7]) [M⁻¹ s⁻¹] | other results
BSN-8H11 (antibody, IgG2b, V domains shown, also called A16) VH: EVQLQQSGPELVKPGASVKIPCKASGYTFTDYNIDWVKQSHGKSLEWIGDINPNYGGTLYNQKFKGKATLTVDKSSSTAYMELRSLTSEDTAVYYCARGELGHWYFDVWGTGTTVTVSS VL: DIVLTQSPASLAVSLGQRATISCRASKSVSTSDYSYMHWYQQKPGHPPKLLIYLASNLESGVPARFSGSGSGTDFTLNIHPVEEEDAATYFCQHSRDLPPTFGGGTKLEIK | – | – | – | GMFI [1]: 239000; binding relative to anti-FLAG positive control [2]: 190%
BSN-2E1 (antibody, V domains shown) VH: QVQLQESGPELVKPGASVKIPCKASGYTFTDYNMDWVKQSHGKSLEWIGDINPHNGGPIYNQKFTGKATLTVDKSSSTAYMELRSLTSEDTAVYYCARGELGHWYFDVWGTGTTVTVSS VL: NIVMTQSPKSMSMSVGERVTLTCKASENVVTYVSWYQQKPEQSPKLLIYGASNRYTGVPDRFTGSGSATDFTLTISSVQAEDLADYHCGQGYSYPYTFGGGTKLEIK | – | – | – | GMFI [1]: 206000; binding relative to anti-FLAG positive control [2]: 164%
BSN-1H2 (antibody, IgG1, V domains shown, also called A1) VH: QAQLQQSGAELARPGASVKLSCKASGYTFTSYGITWVKQRTGQGLEWIGDIYPRSGNIYYNENFKGEATLTADKSSSTAYMQLSRLTSEDSAVYFCARSGWEGWFAYWGQGTLVTVSV VL: DIVMTQSHKFMSTSVGDRVNITCKASQDVGSAVVWYQQKPGQSPKVLIYWASTRHTGVPDRFTGSGSGTDFTLTISNVQSEDLADYFCQQYSSYRTFGGGTKLEIK | – | – | – | GMFI [1]: 197000; binding relative to anti-FLAG positive control [2]: 157%
YU100-G08 (antibody, human IgG1, V domains shown, Light chain shuffled human antibody; Only the variable domains are tied to the clone) VH: QVQLVQSGGGVVQPGRSLRLSCAASGFTFSSYGMHWVRQAPGKGLEWVAVISYDGSNKYYADSVKGRFTISRDNSKNTLYLQMNSLRAEDTAVYYCAKIGATDPLDYWGQGTLVTVSS VL: QSALTQPRSVSGSPGQSVTLSCTGTSSDVGGYNYVSWYQHYPGKAPKLMIFDVNERSSGVPDRFSGSKSGNTASLTISGLQAEDEADYYCCSYAGRYTWMFGGGTKVTVLG | – | – | – | hIL11 - average signal (Human IL-11 [3]): 0.153; mIL11 - average signal (Mouse IL-11): 0.27; MMP2 production, Experiment 1 (human atrial fibroblasts + TGFB1) (Human IL-11 [4]): 42.3 ng/mL; MMP2 production, Experiment 2 (human atrial fibroblasts + TGFB1) (Human IL-11 [4]): 38 ng/mL; EC50 (Human IL-11 [5]): 0.028 µg/mL; Kd (Human IL-11 [6]): 3.51 nM; koff (Human IL-11 [6]): 0.0013 s⁻¹; kon (Human IL-11 [6]): 369000 M⁻¹ s⁻¹
YU100-H01 (antibody, human IgG1, V domains shown, Light chain shuffled human antibody; Only the variable domains are tied to the clone) VH: QVQLVQSGGGVVQPGRSLRLSCAASGFTFSSYAMHWVRQAPGKGLEWVAVISYDGSNKYYADSVKGRFTISRDNSKNTLYLQMNSLRAEDTAVYYCARIMGYDYGDYDVVDYWGQGTLVTVSS VL: QSALTQPRSVSGSPGQSVTISCTGTSSDVGAYNYVSWYQQHPGKAPKLMIYDVSERPSGVPDRFSGSKSGNTASLTISGLQAEDEADYYCCSYAGSYTWVFGGGTKLTVLG | 42.3 | 0.000658 | 14800 | hIL11 - average signal (Human IL-11 [3]): 0.43; mIL11 - average signal (Mouse IL-11): 0.283; MMP2 production, Experiment 1 (human atrial fibroblasts + TGFB1) (Human IL-11 [4]): 48.3 ng/mL; MMP2 production, Experiment 2 (human atrial fibroblasts + TGFB1) (Human IL-11 [4]): 42.2 ng/mL; EC50 (Human IL-11 [5]): 0.053 µg/mL
01L (antibody, IgG1, V domains shown, C91L variant of the YU100-H01 VL) VH: QVQLVQSGGGVVQPGRSLRLSCAASGFTFSSYAMHWVRQAPGKGLEWVAVISYDGSNKYYADSVKGRFTISRDNSKNTLYLQMNSLRAEDTAVYYCARIMGYDYGDYDVVDYWGQGTLVTVSS VL: QSALTQPRSVSGSPGQSVTISCTGTSSDVGAYNYVSWYQQHPGKAPKLMIYDVSERPSGVPDRFSGSKSGNTASLTISGLQAEDEADYYCLSYAGSYTWVFGGGTKLTVLG | 33.5 | 0.000526 | 15700 | –
01Q (antibody, IgG1, V domains shown, C91Q variant of the YU100-H01 VL) VH: QVQLVQSGGGVVQPGRSLRLSCAASGFTFSSYAMHWVRQAPGKGLEWVAVISYDGSNKYYADSVKGRFTISRDNSKNTLYLQMNSLRAEDTAVYYCARIMGYDYGDYDVVDYWGQGTLVTVSS VL: QSALTQPRSVSGSPGQSVTISCTGTSSDVGAYNYVSWYQQHPGKAPKLMIYDVSERPSGVPDRFSGSKSGNTASLTISGLQAEDEADYYCQSYAGSYTWVFGGGTKLTVLG | 104 | 0.000966 | 9290 | –
01T (antibody, IgG1, V domains shown, C91T variant of the YU100-H01 VL) VH: QVQLVQSGGGVVQPGRSLRLSCAASGFTFSSYAMHWVRQAPGKGLEWVAVISYDGSNKYYADSVKGRFTISRDNSKNTLYLQMNSLRAEDTAVYYCARIMGYDYGDYDVVDYWGQGTLVTVSS VL: QSALTQPRSVSGSPGQSVTISCTGTSSDVGAYNYVSWYQQHPGKAPKLMIYDVSERPSGVPDRFSGSKSGNTASLTISGLQAEDEADYYCTSYAGSYTWVFGGGTKLTVLG | 17.1 | 0.0127 | 742000 | –
01A (antibody, IgG1, V domains shown, C91A variant of the YU100-H01 VL) VH: QVQLVQSGGGVVQPGRSLRLSCAASGFTFSSYAMHWVRQAPGKGLEWVAVISYDGSNKYYADSVKGRFTISRDNSKNTLYLQMNSLRAEDTAVYYCARIMGYDYGDYDVVDYWGQGTLVTVSS VL: QSALTQPRSVSGSPGQSVTISCTGTSSDVGAYNYVSWYQQHPGKAPKLMIYDVSERPSGVPDRFSGSKSGNTASLTISGLQAEDEADYYCASYAGSYTWVFGGGTKLTVLG | 62.6 | 0.00081 | 12900 | –
01V (antibody, IgG1, V domains shown, C91V variant of the YU100-H01 VL) VH: QVQLVQSGGGVVQPGRSLRLSCAASGFTFSSYAMHWVRQAPGKGLEWVAVISYDGSNKYYADSVKGRFTISRDNSKNTLYLQMNSLRAEDTAVYYCARIMGYDYGDYDVVDYWGQGTLVTVSS VL: QSALTQPRSVSGSPGQSVTISCTGTSSDVGAYNYVSWYQQHPGKAPKLMIYDVSERPSGVPDRFSGSKSGNTASLTISGLQAEDEADYYCVSYAGSYTWVFGGGTKLTVLG | 84.7 | 0.000778 | 9190 | –
01S (antibody, IgG1, V domains shown, C91S variant of the YU100-H01 VL) VH: QVQLVQSGGGVVQPGRSLRLSCAASGFTFSSYAMHWVRQAPGKGLEWVAVISYDGSNKYYADSVKGRFTISRDNSKNTLYLQMNSLRAEDTAVYYCARIMGYDYGDYDVVDYWGQGTLVTVSS VL: QSALTQPRSVSGSPGQSVTISCTGTSSDVGAYNYVSWYQQHPGKAPKLMIYDVSERPSGVPDRFSGSKSGNTASLTISGLQAEDEADYYCSSYAGSYTWVFGGGTKLTVLG | 107 | 0.000905 | 8470 | –
01I (antibody, IgG1, V domains shown, C91I variant of the YU100-H01 VL) VH: QVQLVQSGGGVVQPGRSLRLSCAASGFTFSSYAMHWVRQAPGKGLEWVAVISYDGSNKYYADSVKGRFTISRDNSKNTLYLQMNSLRAEDTAVYYCARIMGYDYGDYDVVDYWGQGTLVTVSS VL: QSALTQPRSVSGSPGQSVTISCTGTSSDVGAYNYVSWYQQHPGKAPKLMIYDVSERPSGVPDRFSGSKSGNTASLTISGLQAEDEADYYCISYAGSYTWVFGGGTKLTVLG | 29.2 | 0.00269 | 92100 | –
01G (antibody, IgG1, V domains shown, C91G variant of the YU100-H01 VL) VH: QVQLVQSGGGVVQPGRSLRLSCAASGFTFSSYAMHWVRQAPGKGLEWVAVISYDGSNKYYADSVKGRFTISRDNSKNTLYLQMNSLRAEDTAVYYCARIMGYDYGDYDVVDYWGQGTLVTVSS VL: QSALTQPRSVSGSPGQSVTISCTGTSSDVGAYNYVSWYQQHPGKAPKLMIYDVSERPSGVPDRFSGSKSGNTASLTISGLQAEDEADYYCGSYAGSYTWVFGGGTKLTVLG | 560 | 0.000986 | 1760 | –
BSN-2G6 (antibody, V domains shown) VH: QVQLQESGPELVKPGASVKIPCKASGYTFTDYNMDWVKQSHGKSLEWIGNINPDNGGTIYNQKFKGKATLTVDKSSSTAYMELRSLTSEDTAVYFCAREGPYGYTWFAYWGQGTLDTVSA VL: DILLTQSPAILSVSPGERVSFSCRASQSIGTSIHWYQQRTNGSPRLLIKYASESISGIPSRFSGSGSGTDFTLSINSVESEDIADYYCQQSNSWPLTFGAGTKLELK | – | – | – | GMFI [1]: 28600; binding relative to anti-FLAG positive control [2]: 23%
